Laboratory results as given in a protein production outcome set (Wang et al. 2014).

Experiment: label from the status in PepcDB records
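Also: failed if final PepcDB status was selected cloned or expressed and not failed if soluble or beyond.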

| Sequence | protein production |
| --- | --- |
| MEHDLNDMMVFLAVVETGSFTLAADRLGMPKANVSRKVSRLEKNLAVTLLERSTRSQHLTEAGRRYLAHCKRIHEELDLATASVCELFHSYTGELKIGASVASGQQVLRPALGKFMRQYPDLKVQLNLVNRRVDFIEEGFDVVIRIGQLNDSMLIAKKLGAINRKIFASPSYLAKQGNPDKVEQLTEHQLLIMNPLNISGNKDLKLPLTSTDHETFTLDCQPRLLVDDFSMLKQAIVDGLGIGVLPDYMCRQEVASGQLVNILPDWGMAKVDIYALYPKHRAKIPKVKAFIDFVSELYGEVL | not failed |
| MLAFFIFLSTLVLLFWRPWNLPIWVFSSLGAFFVFIFQLVDFKDACFVFSLVWDSSLTLVGLIILSFSLEALGFFDFIASKILYFSREKNQEKIYISTKKMMLFLLIFVFFLSAFFANDGAILIITPIIIALFSTLKDCKNHAFILSSFLLSLSFLCDASSNALVISNLTNIITANYFKIEFLEFAKNMFLPNFFVLLSTIVTVFVLYVRVLPKRLEFKLIKKEQISLKLFFLCIVFLFLFVISFFIGEIFNIKISFFALLWAGIFWLIILKIQGKKSIKILFEAPYGVLLFSFGLYMVVFALHKIGVSEILVKSYAFLMQDKSGIFGVALISAFGSSVFNNLPMVLIGDLALKEYFENFSFDSLMIYAHLLGVNIGPKLTPIGSLATLLWLGVLARKGINISFWQYCKFGFLITLPVLVFSLFALIV | failed |
| MARGDEGGENMIKIYTLGGYEEVGKNMTAVEYEGEVVIIDMGIRLDRVLIHEDVEFQKMSSKDLRKLGAIPDDRPIRDKKVVAIALSHGHLDHIGAVGKLAPHYPDVPIYGTPYTIRLAKSEIKGEEYFEVTNPLYETNYGEIVQVSENLAIEFVQVTHSIPHSSIVVIHTPEGAVVYACDYKFDNNHPYGEKPDYKRLKELGKEGVKVLIAESTRVAEETKTPSEAVAKMLLEDFFLYEGMEADGLIATTFASHIARLQELIEIANKMGRQAIFIGRSLAKYTGIAKQLGLIKMKGSRVLRSPNAVSKVLKEVSQARENYLLIVTGHQGEPGAILTRMANGELYDIGPRDTVVFSAGVIPNPLNIAQRYALETKLKMRGVRMIKDLHVSGHASKEDHRYLIRMLNPEYIVPAHGEFRMLTHYAELAEEEGYRIGKDVFISRNGHIVEII | failed |
| MRTLNKDEHNYIKQIANIHETLLSQVESNYKCTKLSIALRYEMICSRLEHTNDKIYIYENEGQLIAFIWGHFSNEKSMVNIELLYVEPQFRKLGIATQLKIALEKWAKTMNAKRISNTIHKNNLPMISLNKDLGYQVSHVKMYKDID | not failed |
| MKTNEVLETIKARRSVRAYDRKQIPADDLNAILEAGAYAPSGMHYETWHFTAVCNTVKLEELNERIKGAFAKSDDKHLRERGHSETYCCYYHAPTLVIVSNEPKQWWAGMDCACAIENMFLAATSLGIASCWINQLGTTCDDPEVRAYLTSLGVPENHKVYGCVALGYKAEGALLKEKTVKAGTITIVE | not failed |
| MSNNTKRVGSQTIELKSKPRIIATYSVVGPREGQGPLKEYFDKILQDDCNGCESFEKAESSLMITAIEGVIKKGNVKEEDVDYLFSGDLLNQLTSTNFVAREFKIPFFGVYGACSTMAESLSLSSMIMDGDFAKYAIASTSSHFSSAERQFRFPLEYGCQRKEYSQWTVTGSGAMLLGKSGDYPYVTHVTTGIVKDYGIKDADNMGAAMAPAAVDTIYKHFVDTGRKPEDYDVIATGDLGAVGKKLTEELLKEYGYDISKVYIDCGEKIFDNEKQGTFAGGSGCGCSAVVACGYLYRMLKEKKLKRVLLVSTGALLSSTSALQGESIPGIAHAVAIEYILEHHHHHH | not failed |
| MVETLPALEIGEDERLDLENLATGAFFPVKGFMTREEALSVAHEMRLPTGEVWTIPILLQFREKPRVGPGNTVALLHGGERVALLHVAEAYELDLEALARAVFGTDSETHPGVARLYGKGPYALAGRVEVLKPRPRTPLEKTPEEVRAFFRQRGWRKVVAFQTRNAPHRAHEYLIRLGLELADGVLVHPILGAKKPDDFPTEVIVEAYQALIRDFLPQERVAFFGLATPMRYAGPKEAVFHALVRKNFGATHFLVGRDHAGVGDFYDPYAAHRIFDRLPPLGIEIVKVGAVFHCPLCGGIASERTCPEGHREKRTAISMTKVRALLREGKAPPSELVRPELLPILRRGV | not failed |
| MICCLNPDCLNPLNPDGKKSCQSCGTTLVPLLRNRFRVVRVLSDEGGFGRTYLSEDKDKLNEPCVIKQLAPKFQGTWSQKKAVELFAEEAKRLQELGEHPQIPTLMAYFEQDNCLYLVQQFINGQNLLKELQQRKNYRPGEIQAILLDLLPVLKFIHDRGVIHRDIKPENIIRCRTDGRLNLIDFGSSKQLTAKVQNFGTSIGSHGYSPLEQIRDGKAYAASDLFALGATCFHLITSVSPFQLWMEHGYSWVSNWRQYLHSPLTPELDFVLDKLLQKDLKHRYTSADEVIKDITPKQPLALPAAGQTSGKIPVPQTTYLSKLPKKYSLLRSVVLLSALVLLFGFSESWFSQYLQIYSSLSARLTQNKSGQVVLAQPQKTTLRTISLANTLPDDENAFVSLAISPNGQIIASCGSDRTIKIWQLATGEDISSLKGHSRKVNAVVFSPDGKTLVSGGDDNTIKIWNLKTGKVIRTITGHSDAVHTLAISPNGKTLVSGSDDNTVKVWNLNTGRLINTLTGHTFWVRSVAISPDGVNIASGSFDKTVKIWNLETGTLTHTLAGNGETVTSIAFNPDGNTLASASRDRTIKIWKVGAGTRVRTLKGSTETITSIAFSPDGNTLASASRDQTIKLWNLETGKEIRTLEGHENTVTTVAFTPDGANLVSGSGDNTMRIWRIGN | failed |
| MLYPSKPNNEALRIQTLRELNVLDTSPEERFDRLTRLAKRLFNVPIALVSLVDADRQWFKSCVGLDVSETSRDISFCGHAILGDQILTVPDAGLDERFHDNPLVVGAPGIRFYAGCPLTVTNGSKLGTLCLIDIKPRDLDDEDRALLRDLARMAEQELAAVQMASMDELTLLSNRRGFEALARHALGVCKRLEKPATLLFFDLNDFKQINDTYGHAEGDGALKTFADVLRIAFRESDVIGRLGGDEFVALLTAADHVETSAIMARLREILDERNATLKRGYDIRFSVGQIEYDAERHPDIEALLADADKAMYLHKQASKRARLEHHHHHH | failed |
| MKIADGVYVHFIPTQKYKTNRIVFRMTGSLNKQTIAKRALVSQMLATANQTYPTVQSFKERLASLYGTQLSTKVSTKGLTHSVDIELTYLKDFFIPMNTSLFWEVLGFLMDCLYNPLSIVAQYQNKVFDIEKQNLMTYLDVDTENNYYYSEVQGRELYFVNEALKVPKYGRVELVEAETSFTAYQEFQSMLTKDRIDIFMVGEFDDYQVLRGLHRFPLEGRQVDLQFSYNQSYSKVVKEKIETRQTSQSILQLGYQFPCQYGDKDYFALIVFNGMLGEFAHSALFTKIREKEGLAYSIGSQFDAFTGLLEIYAGIEKSNRNQAMRGIIRELNHIKLGRFSSSLFNQTKKIIRMNALLSEDHALTLVEQHFNKVIFGDKKISLEDWLDKIEKVTKKDVCRIARQVKLQSLFFLEGVS | failed |
| SNRMTEMHVCLADAIQKDNRPEISNRLFRSNAVEKEILRVQKLLKNAKLAWMFTNCFPNTLDTTVHFRKGSDGKPDTFVYTGDIHAMWLRDSGAQVWPYVQLANSDPELKEMLAGVILRQFKCINIDPYANAFNDGAIPDGHWMSDLTDMKPELHERKWEIDSLCYPLRLAYHYWKTTGDASIFNEEWIQAITNVLKTFKEQQRKDGVGPYKFQRKTERALDTVSNDGLGAPVKPVGLIVSSFRPSDDATTLQFLVPSNFFAVSSLRKAAEILEKVNKKTALSKECKDLAQEVETALKKYAVYNHPKYGKIYAFEVDGFGNHHLMDDANVPSLLAMPYLGDVNVNDPIYQNTRRFVWSEDNPYFFKGKAGEGIGGPHIGYDMVWPMSIMMKAFTSQNDAEIKTCIKMLMDTDAGTGFMHESFHKDNPKKFTRAWFAWQNTLFGELILKLVNEGKVDLLNSIQ | not failed |
| MNRLQGMELFVEVARTLSFGRAAENLAIPKSTLSRQVAELERSVGLRLLSRTTRRVELTEAGQLYFERCQRIVAEARIAHEELQNLVETPSGPLRVNMPADFGTDFLSEAFTEFSRRYPEVTFYLDLASPEHAERVFQTCDVSIEIGDLPDSTHIARLLGVLPAHLYASPDYLARHGEPQHPDDLPRHECIQFRAGTGRVTRWPLNSGERHVEITPGNRFSVNSVSMVRNLATLGAGIAILAPMGNVREDIESGRLKRILPDWLAGPFPVYAVTDTRMLPAKTRIFVEFLMERLSNKTLAGQNNPAFLNLR | failed |
| TVLYVHGGAWFQDPLENHFEYLDLLVDALDARVIMPVYPKIPHRDYRTTFELLTKIYKRLLTKIDEPENLVIIGDSAGGQIALAFAQMLKKEQLSQPGHIVLISPVLDATFKNPEARKYEKEDPMLGIDGSKYLVELWAGDAPLDDYKMSPMNGDLEGLGHITLTVGTKETLYPDAVKFSHMLNDKGIKHQFIPGYNLFHIYPLFPIPERQRFLEQLKKII | failed |
| MDLLSLLDINNTLVNIPIGGGYAMSWVEGFGTIFGLLCIWFASQEKTINYVFGLLNVTLFAVIFFQIQLYGLLLLQLFFFCANIYGWYAWTKPNSSGETLEVRWLSQSKLLAISGGSIAAIALLTIYIDPFFFSLATIAVDGMNLFGAELAEPVLAPDAFPFWDSTMTVLSIVAQILMTRKYVENWMLWIVINIISIGIYATQGVFAMSVQYSILMFIAANGAREWARTAKENINNKQVEKAIA | failed |
| MSPQSMLTSPQHPRRTTMVISHGTLSASAEHAAHLRQLLVHIAQATRQEDGCLLYLVSEDLSQPGHFLITEHWDNLGAMHTHLALPGVTQAIDALKHLNVTDLKITAYEAGEAINIMG | not failed |
| HALAERDRPLPTHLVLSGRMPPHTGYSPLLGAMDDNQLWQHVCSESLLPLPTDASCSFARHALGKLKADLALNAQLTYRFIRPLPVPLYVLNGQDDPLLELHRLDEWQRYTSTSFHSEYVPGGHFFFNINFQLLYLPLLTALD | failed |
| MAQISQLSAVILAGGLARRMNGNEKGLCLLHQQPLISHILARLTPQVCTIYFNINRSFATYQQLYPQLTYYSDKIADFQGPLSGILSGFEKIDSEYLLFVPCDTPFLPKNLVTKLTNSLIMNEATIAYAHDGEQAHPTIALIHRSITPALASYLASGERRLYHFFKTQKSIAVDFSDQKNAFQNFNSLADLEQFSTISATRVDQSRLLGITGYSGTGKTTLLEKLIPILTANGIKVGLIKHSHHNVDIDKNGKDSHRLRTAGANPTIIVCQQRWALMTETPQQAVDFQQLITKFDPESVDLILVEGFKDEQFAKIQLHRQVIKKPLPELDEWTIATATDYPIARPNLLDINQIDKIADFIQQWLNN | failed |
| MSANDSAVNESCHCGGCGSSGNGKFLNETPMLDQLESGPWPSFISGFKALAERTEKPMLRGVLDQLEYSYKTKMGYWKGGLVTVDGYGAGIITRYSMIKDKFPEAAEFHTMRIQPAPGLHYNTTMLRELCDIWEKYGSGIITLHGQTGDIMLQGIEQDKVQACFDELNQKGWDLGGAGAGMRTGVSCIGPGRCDNACYDNLKLHLEALKHFSPQVHRPEWNYKLKFKFSGCPNDCTNAIMRSDLAVIGTWRDSIQIDHDEVKAWIAEKGVDALVNNVINRCPTKAIRLQDGDIDISTRDCVRCMHCINAMSKALSPGKDKGIALLIGGKNTLKVGVNMGSLIVPFMKMETDEDREAFIELIEEIIDWWDDAGLDHERIGETIERVGLKQFLDGVGIEYDINQISRPRDNPYFKAKY | failed |
| MERKNNQRSDEDEERKEQSEEERVERKEEAPRKRQKQDDVSTGKETLSKKRKIIDNDGDNVPTRSNKQSRVDDADNVDGPPVGDNDDHPTAQRKSKRGTIPSIHTQPPFTAEKKKHPILYPFAKVDASRVEKLAEGKKSRKCK | failed |
| AIATVYRLPASISFDEVIQRVSRENVGAVVRCAVGEEQLVVATSHRQEAWTVLKSFLINRCVPMEAREEEPSLGLEKPQYWDRLPANGRTPMERSDHGRGLEFQKSSQDDPVFEKECLLSGYGAQAPSQTGTESLQIPQVALLEEPVPPAYLKKAENAAVSFCGLVRKDRLSSDRVVSALVYESYREMAMLYIHRIAAEQNLHMFVHTVAGSVPVGSVSVLVTGPSVESVRLALEALKRYVPIWKEDVSVPCI | failed |
